Measured values: US20240369535A1, “METHODS AND MATERIALS FOR DETERMINING pGC TARGET DOSAGE” (Mayo Foundation for Medical Education and Research, priority 2021, published 2024)

Legend:
human pGC-A [1] = target: T1, human pGC-A (Homo sapiens, UniProt P16066); experiment: MCUF-651/NP/pGC-A/cGMP potency assay (Example 5), HEK293 cells overexpressing human pGC-A; assay type: cell-based; conditions: for cGMP potency: particularly at 5 and 10 μM
T1 construct: expressed in transfected cells
T1 sequence (P16066 33-1061): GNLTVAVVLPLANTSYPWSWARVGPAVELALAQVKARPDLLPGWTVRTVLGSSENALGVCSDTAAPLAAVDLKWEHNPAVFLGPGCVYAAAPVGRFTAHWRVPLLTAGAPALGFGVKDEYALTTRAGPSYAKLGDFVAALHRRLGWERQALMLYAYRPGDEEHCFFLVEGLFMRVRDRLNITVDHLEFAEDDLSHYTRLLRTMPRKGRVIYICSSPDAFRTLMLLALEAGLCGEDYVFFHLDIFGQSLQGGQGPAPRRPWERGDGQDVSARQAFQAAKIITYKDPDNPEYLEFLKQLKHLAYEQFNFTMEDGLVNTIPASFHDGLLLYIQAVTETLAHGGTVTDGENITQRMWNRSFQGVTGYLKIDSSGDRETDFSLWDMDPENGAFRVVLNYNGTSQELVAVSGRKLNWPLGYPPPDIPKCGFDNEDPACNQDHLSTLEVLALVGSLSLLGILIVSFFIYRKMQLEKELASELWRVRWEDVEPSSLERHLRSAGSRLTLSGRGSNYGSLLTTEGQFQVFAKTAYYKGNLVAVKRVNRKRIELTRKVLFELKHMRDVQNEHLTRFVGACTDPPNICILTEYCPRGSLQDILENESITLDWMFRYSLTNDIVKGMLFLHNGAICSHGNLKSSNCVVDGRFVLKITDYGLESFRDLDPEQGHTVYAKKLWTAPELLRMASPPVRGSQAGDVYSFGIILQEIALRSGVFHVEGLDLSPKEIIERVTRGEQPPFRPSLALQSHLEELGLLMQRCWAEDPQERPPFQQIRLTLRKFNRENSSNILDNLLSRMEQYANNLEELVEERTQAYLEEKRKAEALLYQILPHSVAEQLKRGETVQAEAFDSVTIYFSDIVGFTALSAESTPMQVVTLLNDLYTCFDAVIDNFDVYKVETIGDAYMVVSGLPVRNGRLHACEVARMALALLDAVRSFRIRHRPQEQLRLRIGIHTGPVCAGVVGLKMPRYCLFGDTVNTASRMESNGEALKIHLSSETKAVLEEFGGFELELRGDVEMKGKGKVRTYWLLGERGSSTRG
Description: (§1) In vitro Cell Culture: HEK 293 cells were stably transfected with human pGC-A or pGC-B using LIPOFECTAMINE™ (Invitrogen, Grand Island, NY) (Chen et al. 2020, supra). Transfected cells (HEK/GC-A or (HEK/GC-B) were maintained in DMEM supplemented with 10% FBS and 250 μg/ml G418. Cells in 48-well plates were grown to 80-90% confluency and then incubated in Hanks Balanced Salt Solution (HBSS, Invitrogen) containing 20 mM HEPES, 0.1% BSA, and 0.5 mM 3-isobutyl-1-methylxanthine (IBMX, Sigma).
MCUF-651/NP/pGC-A/cGMP Potency Assay: Human plasma samples from patients with HT (N=6), ADHF (N=6), and CKD (N=5) were utilized. The details of the recruitment of participants are described above. Stably transfected HEK293 cells engineered to overexpress human pGC-A were cultured (as described above) and grown in 48-well plates to 80-90% confluence. On the day of the experiment, human plasma was diluted 10× with HBSS. 250 μl of diluted plasma was added together with vehicle (DSMO) or the MCUF-651 small molecule pGC-A positive allosteric modulator at doses of 1, 5, or 10 μM to the HEK/pGC-A cells and incubated for 10 minutes at 37° C. Cells were then washed with PBS once and lysed with 0.1 M HCl, and intracellular cGMP levels were measured in the lysate using a commercial cGMP ELISA kit (Enzo Life Sciences, Farmingdale, NY) as instructed by the manufacturer.

human GC-A [2] = target: T2, human GC-A (Homo sapiens, UniProt P16066); experiment: Ex vivo MCUF-651 therapeutic potency assay with human plasma (Example 2), HEK293 overexpressing human GC-A; assay type: cell-based
T2 construct: expressed in transfected cells
T2 sequence (P16066 33-1061): T1 sequence (P16066 33-1061)
Description: Ex Vivo MCUF-651 Therapeutic Potency Assay with Human Plasma from Normal Subjects and Patients with Hypertension and Heart Failure: Stored human plasma samples from normal subjects and patients with HT and HF were utilized. The details of the recruitment of these participants were as described elsewhere (Reginauld et al., supra; and Ferrario et al., Hypertension 77:882-890, 2021). […] HEK293 overexpressing human GC-A were cultured and grown as described above. Cells were grown in 48-well plates to 80-90% confluence. On the day of the experiment, cells were pre-incubated with MCUF-651 at doses of 1, 5, or 10 μM or with vehicle (Veh) in 250 μL treatment buffer (as described above) for 5 minutes at 37° C. 25 μL of human plasma was then added and incubated for additional 10 minutes. Cells were then washed with PBS once and lysed with 0.1 M HCl, and intracellular cGMP levels were measured in the lysate using a commercial cGMP ELISA kit (Enzo Life Sciences, Farmingdale, NY) as instructed by the manufacturer.

human GC-A [3] = target: T2, human GC-A; experiment: NP/GC-A/cGMP potency assay (Example 1): cGMP production in HEK293 cells overexpressing human GC-A; assay type: cell-based
Description: Transfected cells (HEK/GCA) were maintained in Dulbecco Modified Eagle medium (DMEM) supplemented with 10% FBS, and 250 μg/ml G418. Cells in 48-well plates were grown to 80-90% confluency and then incubated in Hanks Balanced Salt Solution (HBSS, Invitrogen) containing 20 mM HEPES, 0.1% BSA and 0.5 mM 3-isobutyl-1-methylxanthine (IBMX, Sigma).
A stable transfected cell line of HEK293 cells engineered to overexpress human GC-A was grown in 48-well plates to 80-90% confluency. […] Studies were repeated with human plasma with or without addition of the designer GC-A activator, MANP, at doses of 10^−10 M and 10^−8 M.

human pGC-B = target: T3, human pGC-B (Homo sapiens, UniProt P20594); experiment: NP/pGC-B/cGMP potency assay (Example 5), HEK293 cells overexpressing human pGC-B; assay type: cell-based; conditions: ADHF plasma
T3 construct: expressed in transfected cells
T3 sequence (P20594 23-1047): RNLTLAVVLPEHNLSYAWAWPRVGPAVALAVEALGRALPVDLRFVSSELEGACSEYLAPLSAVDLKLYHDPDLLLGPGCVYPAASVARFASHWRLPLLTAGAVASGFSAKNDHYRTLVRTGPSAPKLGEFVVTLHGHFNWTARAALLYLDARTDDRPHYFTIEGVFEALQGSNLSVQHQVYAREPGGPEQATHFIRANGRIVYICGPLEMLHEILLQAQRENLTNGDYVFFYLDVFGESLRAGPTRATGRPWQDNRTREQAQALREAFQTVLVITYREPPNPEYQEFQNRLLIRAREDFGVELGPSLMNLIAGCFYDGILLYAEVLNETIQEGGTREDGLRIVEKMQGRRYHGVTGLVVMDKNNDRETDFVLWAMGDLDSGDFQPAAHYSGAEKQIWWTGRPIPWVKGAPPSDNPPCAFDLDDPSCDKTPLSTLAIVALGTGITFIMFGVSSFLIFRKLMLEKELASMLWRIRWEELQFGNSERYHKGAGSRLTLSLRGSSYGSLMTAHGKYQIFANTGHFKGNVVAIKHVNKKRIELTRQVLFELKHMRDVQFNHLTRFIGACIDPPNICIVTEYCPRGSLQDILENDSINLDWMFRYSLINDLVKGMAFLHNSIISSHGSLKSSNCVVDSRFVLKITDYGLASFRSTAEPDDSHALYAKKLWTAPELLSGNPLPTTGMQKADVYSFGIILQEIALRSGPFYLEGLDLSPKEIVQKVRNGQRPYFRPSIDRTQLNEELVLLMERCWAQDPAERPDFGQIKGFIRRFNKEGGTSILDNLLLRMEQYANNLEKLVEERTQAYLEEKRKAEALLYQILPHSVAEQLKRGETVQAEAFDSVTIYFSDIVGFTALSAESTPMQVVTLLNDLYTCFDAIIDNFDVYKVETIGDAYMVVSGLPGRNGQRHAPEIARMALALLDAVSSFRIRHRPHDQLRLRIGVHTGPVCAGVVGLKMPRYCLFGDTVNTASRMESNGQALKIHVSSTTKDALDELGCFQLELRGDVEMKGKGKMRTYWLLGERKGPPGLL
Description: as §1
NP/pGC-B/cGMP Potency Assay: Human plasma samples from patients with ADHF (N=6) were utilized. Stably transfected HEK293 cells engineered to overexpress human pGC-B were cultured (as described above) and grown in 48-well plates to 80-90% confluence. On the day of the experiment, human plasma was diluted 10× with HBSS. Diluted plasma (250 μl) was added together with vehicle (PBS), native CNP (an endogenous pGC-B activator), C53 (a designer CNP analog/pGC-B activator) or CRRL-408 (a designer dual pGC-A and pGC-B activator) at doses of 10^−10, 10^−8, or 10^−7 M to the HEK/GC-B cells and incubated for 10 minutes at 37° C. Afterwards, cells were washed once with PBS and lysed with 0.1M HCl. cGMP was then assayed using an ELISA (Enzo Life Sciences) as described elsewhere (Chen et al. 2018, supra).

[4] = target: human pGC-A receptor (human) (UniProt P16066); experiment: cell-based or functional assay
human pGC-A [5] = target: T1, human pGC-A; experiment: NP/pGC-A/cGMP potency assay (Example 5), HEK293 cells overexpressing human pGC-A; assay type: cell-based
Description: as §1
NP/pGC-A/cGMP Potency Assay: Human plasma samples from patients with HT (N=6), ADHF (N=6), and CKD (N=5) were utilized. Stably transfected HEK293 cells engineered to overexpress human pGC-A were cultured (as described above) and were grown in 48-well plates to 80-90% confluence. On the day of the experiment, human plasma was diluted 10× with HBSS. […] Afterwards, the cells were washed once with PBS and lysed with 0.1M HCl. cGMP was then assayed using an ELISA (Enzo Life Sciences) as described elsewhere (Chen et al. 2018, supra).

## CN(C)CCN1CCCC(C(=O)Nc2nc3c(F)cc(F)cc3s2)C1 (stereo not drawn) [MCUF-651]
Human pGC-A [1]; ADHF plasma with higher circulating ANP and BNP
  cGMP potency: higher cGMP potency
Human pGC-A [1]; ADHF plasma with lower circulating ANP and BNP
  cGMP potency: lower cGMP potency
Human pGC-A [1]; ADHF plasma, dose 1 μM
  cGMP levels: modestly potentiated
Human pGC-A [1]; ADHF plasma, dose 5 μM
  cGMP levels: markedly potentiated
Human pGC-A [1]; ADHF plasma, dose 10 μM
  cGMP levels: markedly potentiated
Human pGC-A [1]; CKD plasma, dose 1 μM
  cGMP levels: no response
Human pGC-A [1]; CKD plasma, dose 5 μM
  cGMP levels: minimally potentiated
Human pGC-A [1]; CKD plasma, dose 10 μM
  cGMP levels: minimally potentiated
Human pGC-A [1]; HT plasma, dose 1 μM
  cGMP levels: modestly potentiated
Human pGC-A [1]; HT plasma, dose 5 μM
  cGMP levels: markedly potentiated
Human pGC-A [1]; HT plasma, dose 10 μM
  cGMP levels: markedly potentiated
Human GC-A [2]; 1, 5 or 10 μM, plasma from normal subjects, hypertensive and HF patients (all three cohorts)
  generation of cGMP levels: potentiated
Human GC-A [2]; HF plasma, highest circulating ANP and BNP
  cGMP potency compared between cohorts: greatest cGMP potency

## B-type natriuretic peptide [BNP, reference compound]
Human GC-A [3]; synthetic peptide alone, concentrations corresponding to ADHF deficient ANP and BNP plasma (ANP 16.8, BNP 47.4 pg/mL), 10 min
  mean cGMP level: 6.9 ± 0.9 pmol/mL
Human GC-A [3]; synthetic peptide alone, concentrations corresponding to ADHF elevated ANP and BNP plasma (ANP 350, BNP 1225.7 pg/mL), 10 min
  mean cGMP level: 80.3 ± 16.9 pmol/mL
Human GC-A [3]; synthetic peptide alone, concentrations mimicking healthy subject plasma (ANP 25.5, BNP 27 pg/mL), 10 min
  mean cGMP level: 4.7 ± 0.4 pmol/mL

## C53: designer pGC-B activator, 53 amino acid intermediate form of CNP (SEQ ID NO:5) (DLRVDTKSRAAWARLLQEHPNARKYKGANKKGLSKGCFGLKLDRIGSMSGLGC)
Human pGC-B; dose 10^-8 M
  cGMP levels: markedly potentiated
Human pGC-B; dose 10^-10 M (in a single patient)
  cGMP levels: modestly potentiated

## C-type natriuretic peptide [CNP, reference compound]
Human pGC-B; dose 10^-8 M
  cGMP levels: markedly potentiated

## MANP (designer pGC-A activator) (peptide)
[4]
  cGMP in HEK293 cells overexpressing human GC-A; plasma of ADHF patients with elevated ANP and BNP plus 10^-8 M MANP: 201 pmol/mL
  cGMP in HEK293 cells overexpressing human GC-A; plasma of ADHF patients with elevated ANP and BNP plus 10^-10 M MANP: 60.4 pmol/mL

## MANP: designer pGC-A activator, polypeptide SLRRSSCFGGRMDRIGAQSGLGCNSFRYRITAREDKQGWA (SEQ ID NO:1)
Human GC-A [3]; healthy plasma + 10^-8 M MANP
  mean cGMP level: 167 ± 14.1 pmol/mL
Human GC-A [3]; healthy plasma + 10^-10 M MANP
  mean cGMP level: 45 ± 5.5 pmol/mL
Human GC-A [3]; plasma of deficient ANP and BNP ADHF patients + 10^-8 M MANP
  mean cGMP level: 166.9 ± 9.1 pmol/mL
Human GC-A [3]; plasma of deficient ANP and BNP ADHF patients + 10^-10 M MANP
  mean cGMP level: 33.8 ± 1.4 pmol/mL
Human GC-A [3]; plasma of elevated ANP and BNP ADHF patients + 10^-8 M MANP
  mean cGMP level: 200.8 ± 5.4 pmol/mL
Human GC-A [3]; plasma of elevated ANP and BNP ADHF patients + 10^-10 M MANP
  mean cGMP level: 60.4 ± 9.7 pmol/mL
Human pGC-A [5]; ADHF plasma, dose 10^-8 M
  cGMP levels: markedly potentiated
Human pGC-A [5]; ADHF plasma, dose 10^-10 M
  cGMP levels: modestly potentiated
Human pGC-A [5]; CKD plasma, dose 10^-8 M
  cGMP levels: markedly potentiated
Human pGC-A [5]; CKD plasma, dose 10^-10 M
  cGMP levels: modestly potentiated
Human pGC-A [5]; HT plasma, dose 10^-8 M
  cGMP levels: markedly potentiated
Human pGC-A [5]; HT plasma, dose 10^-10 M
  cGMP levels: modestly potentiated

## synthetic human BNP (from UniProt P16860 103-134) (ligand)
[4]
  cGMP in HEK293 cells overexpressing human GC-A; synthetic BNP at the level of ADHF plasma with elevated ANP and BNP (1225.7 pg/mL): 80.3 pmol/mL
  mean cGMP in HEK293 cells overexpressing human GC-A; synthetic BNP at 27 pg/mL (level of healthy plasma): 4.7 pmol/mL
  mean cGMP in HEK293 cells overexpressing human GC-A; synthetic BNP at the level of ANP and BNP deficient ADHF plasma (47.4 pg/mL): 6.9 pmol/mL
